Source: the supplement of paper PMC10126150
± gives the standard deviation of the averaged measurements.

System: ATP
Assay: switch fluorescence ratio, 500 uM ATP over buffer (Cy3 cluster intensity, sum of 5 cycles each) (fold (ratio)); higher = stronger signal-on switching upon ATP binding; sequences stand for … in TCGTCGGCAGCGTCAGATGTGTATAAGAGACAGTTTTTTTTTTTTTTTTTTTTTTTTT…TC
Settings: aptamer strand: ATP DNA aptamer (quencher-CACCTGGGGGAGTATTGCGGAGGAAGG + anchor), 100 nM annealed; ATP concentration: 500 uM
How it was run: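 Clusters carrying Cy3-labelled switching strands on a modified Illumina MiSeq flow-cell were annealed to 100 nM quencher-labelled ATP aptamer and imaged in selection buffer. They were imaged again after 15 min with 500 uM ATP at 22 °C, over five buffer/ATP cycles with NaOH stripping and re-annealing in between. For each cluster, the fluorescence ratio is the summed Cy3 intensity of the target cycles divided by that of the buffer cycles, averaged per switch-domain sequence. Clusters outside 100-1000 RFU were left out.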
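Note: ATP exposure 15 min at 22 °C before imaging.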

Sequence | switch fluorescence ratio
TGGACTTGGG | 0.983 ± 0.023
TGGAGAATTT | 1.02 ± 0.044
TGGAGCCTGG | 0.984 ± 0.021
TGGAGCGAGG | 1.02 ± 0.00015
TGGAGGACTA | 1.14 ± 0.13
TGGAGGAGGA | 0.982 ± 0.025
TGGAGGGCTA | 0.97 ± 0.032
TGGAGGGTGG | 1.01 ± 0.019
TGGAGGTGTG | 0.977 ± 0.01
TGGAGTAGGA | 1.04 ± 0.051
TGGAGTGTTC | 1.06 ± 0.011
TGGAGTGTTT | 0.94 ± 0.021
TGGATAGGGG | 1.03 ± 0.012
TGGATATAGA | 1.01 ± 0.017
TGGATCAGAG | 0.9984 ± 0.0013
TGGATCATTT | 0.999 ± 0.022
TGGATGACGC | 0.96 ± 0.12
TGGATGACGG | 0.972 ± 0.13
TGGATGGGGT | 0.973 ± 0.027
TGGATGTTAT | 1.02 ± 0.092
TGGATTATGA | 0.955 ± 0.011
TGGATTCATG | 0.978 ± 0.06

Sequence | switch fluorescence ratio
TGGATTCCTA | 1.002 ± 0.01
TGGATTCTCT | 0.997 ± 0.017
TGGATTGACT | 1.058 ± 0.0013
TGGATTTAGA | 1.02 ± 0.017
TGGATTTCGG | 1.016 ± 0.0065
TGGATTTGCA | 1.03 ± 0.022
TGGATTTGGG | 0.9969 ± 0.0066
TGGATTTGTC | 0.99 ± 0.024
TGGATTTTCA | 0.989 ± 0.03
TGGCAAAATG | 0.9915 ± 0.0088
TGGCAATTTG | 1 ± 0.033
TGGCACCATT | 1.06 ± 0.047
TGGCAGACGG | 1.01 ± 0.038
TGGCAGAGGG | 1 ± 0.044
TGGCAGGGGG | 0.945 ± 0.029
TGGCAGGGTC | 0.9774 ± 0.0077
TGGCATTCGT | 0.9757 ± 0.0091
TGGCCACTTA | 1.073 ± 0.0058
TGGCCAGCTC | 0.975 ± 0.016
TGGCCATAGG | 0.999 ± 0.041
TGGCCCGGGC | 1.02 ± 0.017
TGGCCGCGGA | 1.01 ± 0.03

Sequence | switch fluorescence ratio
TGGCCGTATT | 1 ± 0.056
TGGCCTCATC | 1.02 ± 0.058
TGGCCTGCTG | 0.9919 ± 0.0026
TGGCCTGGGA | 1.026 ± 0.0056
TGGCGATTTT | 0.978 ± 0.048
TGGCGCATTC | 1.3 ± 0.15
TGGCGCCACT | 0.976 ± 0.013
TGGCGCCGAT | 0.9608 ± 0.0026
TGGCGCCGGG | 0.9958 ± 0.0091
TGGCGCTTGT | 0.978 ± 0.028
TGGCGGAAGG | 0.999 ± 0.044
TGGCGGACGT | 1 ± 0.0081
TGGCGGAGTC | 1 ± 0.022
TGGCGGCCAC | 1.04 ± 0.15
TGGCGGGGTT | 0.986 ± 0.022
TGGCGGTACG | 1.02 ± 0.069
TGGCGGTTGC | 0.955 ± 0.013
TGGCGTTGAT | 0.984 ± 0.019
TGGCGTTTGG | 1 ± 0.015
TGGCGTTTTT | 1.01 ± 0.023
TGGCTGGAAG | 0.988 ± 0.027
TGGCTGGGTT | 1 ± 0.054

Sequence | switch fluorescence ratio
TGGCTTACAT | 1.0268 ± 0.00039
TGGCTTAGGA | 0.979 ± 0.012
TGGCTTATTT | 0.988 ± 0.031
TGGCTTTGCT | 0.962 ± 0.015
TGGCTTTGGA | 0.988 ± 0.022
TGGCTTTGTT | 0.9888 ± 0.0041
TGGCTTTTAT | 0.95149 ± 0.00041
TGGCTTTTTG | 0.9898 ± 0.0035
TGGCTTTTTT | 0.998 ± 0.027
TGGGAAAAAC | 1.09 ± 0.1
TGGGAAAACT | 1.07 ± 0.12
TGGGAAAATT | 1 ± 0.033
TGGGAAAGCT | 1.256 ± 0.0016
TGGGAACACT | 1.01 ± 0.033
TGGGAACTCG | 0.99483 ± 0.00048
TGGGAAGAGC | 1.025 ± 0.0038
TGGGAATGCG | 1.013 ± 0.0026
TGGGAATTCC | 1 ± 0.011
TGGGAATTGA | 0.9976 ± 0.0057
